Changes are numbered by the printed parent chain.
How the values were obtained:
[1] = target: T1, pan IgC segment of human PD-L1, expressed on MC38 / CHO-K1 cells (human, UniProt Q9NZQ7 132-238); assay: flow cytometry on cells expressing pan IgC
T1 construct: also called PD-L1-pan-IgC; hPD-L1 pan-IgC segment
Method: (§1) MC38/CHO-K1 cells expressing either PD-L1 or pan IgC were used as positive detection cells. MC38/CHO-K1 wild type cells and PD-L2-expressed MC38/CHO-K1 cells were used as negative control. About 1×10⁵ negative and positive cells were stained with either sera from immunized mice (1:100, 1:1000, 1:10000 dilutions) or culture supernatant (50 μl) from hybridoma, or mouse monoclonal antibody (concentrations as indicated in the figures), or other humanized antibodies (concentrations as indicated in the figures), and incubated at 4° C. for 15 min. After washed with PBS, the cells were stained with a PE conjugated goat anti mouse IgG (BD biosciences) and incubated in dark place at 4° C. for 15 min. After washed with PBS, the stained cells were analyzed by a flow cytometry (NovoCyte, Acebio, Hangzhou).
(§2) MC38 cells expressing either hPD-L1 or pan-IgC were used as positive detection cells, whereas, both hPD-L2 expressed and parental MC38 cells were used as negative detection cells.
(§3) 50 μl/well of hybridoma culture supernatant or 100 ng/well mouse monoclonal antibody were mixed with 1×10 5 of either positive or negative detection cells at 4° C. for 15 min. After washed with PBS, the cells were stained with a PE conjugated goat anti mouse antibody (BD biosciences) at 4° C. for 15 min in dark place.

[2] = target: T2, recombinant PD-L1-3-HIS (secretory splice variant PD-L1-3 with HIS tag, from HEK293 cells) (human, UniProt Q9NZQ7 19-178); assay: direct ELISA, 50 ng/well rPD-L1-3-HIS coated
T2 construct: The range 19-178 comes from the background paragraph; also called rPD-L1-3-HIS; sPD-L1-3-HIS; not shown: HIS tag
T2 sequence (Q9NZQ7 19-178, change not shown): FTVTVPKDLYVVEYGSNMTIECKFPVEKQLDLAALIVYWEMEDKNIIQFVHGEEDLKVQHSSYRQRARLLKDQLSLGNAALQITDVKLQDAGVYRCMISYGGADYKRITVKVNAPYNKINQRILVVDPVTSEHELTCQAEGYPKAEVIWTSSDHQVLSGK

[3] = target: T3, human PD-L1 (membrane-bound type), expressed on MC38 / CHO-K1 cells (human, UniProt Q9NZQ7 19-290); assay: flow cytometry on MC38 cells expressing hPD-L1
T3 construct: Full-length gene transfected into MC38 and CHO-K1 cells; also called hPD-L1
T3 sequence (Q9NZQ7 19-290): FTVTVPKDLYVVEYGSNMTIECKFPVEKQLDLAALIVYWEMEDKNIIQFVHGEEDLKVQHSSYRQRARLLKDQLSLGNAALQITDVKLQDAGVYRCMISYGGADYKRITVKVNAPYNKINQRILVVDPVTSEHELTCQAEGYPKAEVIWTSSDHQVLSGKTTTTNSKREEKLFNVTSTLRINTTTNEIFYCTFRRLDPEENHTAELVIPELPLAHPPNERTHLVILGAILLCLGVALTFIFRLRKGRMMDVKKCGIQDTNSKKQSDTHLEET
Method: as §1, §2, §3

[4] = target: T4, native form of secretory sPD-L1-3, in culture supernatant of transfected MC38 cells (human, UniProt Q9NZQ7 19-178); assay: indirect (sandwich) ELISA: antibody coated, MC38 culture supernatant with sPD-L1-3
T4 construct: Untagged, secreted by MC38 cells; also called sPD-L1-3/12
T4 sequence (Q9NZQ7 19-178): as the sequence (Q9NZQ7 19-178, change not shown) above

[5] = target: T1, pan IgC segment of human PD-L1, …; assay: flow cytometry on cells with pan-IgC
[6] = target: T5, human CD80 (membrane-bound type), on cells (human, UniProt P33681 35-288); assay: flow cytometry on cells with membrane-bound human CD80
T5 construct: whole, on cells
T5 sequence (looked up): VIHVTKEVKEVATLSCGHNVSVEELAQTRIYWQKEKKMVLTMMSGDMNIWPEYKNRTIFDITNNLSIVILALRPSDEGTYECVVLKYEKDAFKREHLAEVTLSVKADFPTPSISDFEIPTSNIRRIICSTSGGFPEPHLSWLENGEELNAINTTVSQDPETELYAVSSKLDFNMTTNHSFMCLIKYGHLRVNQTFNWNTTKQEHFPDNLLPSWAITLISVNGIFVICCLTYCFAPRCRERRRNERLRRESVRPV
From the text: FIG. 10. […] C. CHO-K1 parental cells were used as a negative control. Clone #2D10: human CD80 mouse monoclonal antibody (Elabscience, Wuhan). 2nd antibody: PE labeled goat anti-mouse antibody (BD Biosciences)
as §1

[7] = target: T6, human PD-L2 (membrane-bound type), expressed on CHO-K1 cells (human, UniProt Q9BQ51 20-273); assay: flow cytometry on cells with membrane-bound human PD-L2
T6 construct: whole, on cells; also called hPD-L2
T6 sequence (looked up): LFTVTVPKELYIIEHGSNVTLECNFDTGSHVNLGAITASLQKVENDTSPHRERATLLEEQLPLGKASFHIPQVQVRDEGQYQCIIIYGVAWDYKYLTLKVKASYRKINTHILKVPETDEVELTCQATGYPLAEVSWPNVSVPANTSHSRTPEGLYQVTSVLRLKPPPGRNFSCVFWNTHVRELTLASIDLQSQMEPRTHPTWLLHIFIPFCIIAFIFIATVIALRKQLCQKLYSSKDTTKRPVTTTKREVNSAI

[8] = target: T3, human PD-L1 (membrane-bound type), …; assay: flow cytometry on cells with membrane-bound PD-L1
[9] = target: T4, native form of secretory sPD-L1-3, in …; assay: ELISA with MC38 culture supernatant containing native sPD-L1-3
[10] = target: T6, human PD-L2 (membrane-bound type), …; assay: flow cytometry on cells with membrane-bound human PD-L2; the antibody also bound the CHO-K1 parental cells

T1 sequence (Q9NZQ7 132-238): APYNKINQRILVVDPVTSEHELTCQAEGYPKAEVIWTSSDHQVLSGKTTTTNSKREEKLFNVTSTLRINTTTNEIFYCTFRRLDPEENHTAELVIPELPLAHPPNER

B1: PD-L1 mouse monoclonal antibody #19 (antibody, mouse IgG2b, V domains shown)
VH: EVQLQQSGPELVKPGASVKISCKASGSAFSSSWMNWLKQRPGQGLEWIGRIYPGDGDTNYNGKFKGKATLTADKSSSTAYMQLSSLTSVDSAVYFCARRRANHYGSNWYFDVWGAGTTVTVSS
VL: NIVLTQSPASLAVSLGQRATISCRASESVDSYGKSFMHWYQQKPGQPPKLLIYLASNLESGVPARFSGSGSRTDFTLTIDPVEADDAATYYCQQNNEDPYTFGGGTKLEIK
notes: also called mAb #19; Ab #19
[1]
  binding result: binds
[2]
  binding result: no binding (tested: 100 ng/100 µl/well)
[3]
  binding result: binds
[4]
  binding result: no binding (tested: 0.2 µg/well coated antibody)

B2: humanized PD-L1 antibody H6L5 (VH6 + VL5) (antibody, V domains shown)
VH: B1 VH with P9A, L11V, V12K, A16S, I20V, K67R, A68V, T87R, V89E, S91T
VL: NIVLTQSPASLSASVGDRVTISCRASESVDSYGKSFMHWYQQKPGQPPKLLIYLASNLESGVPARFSGSGSRTDFTLTIDSLQPEDFATYYCQQNNEDPYTFGGGTKLEIK
[5]
  binding result: binds
[6]
  binding result: no binding
[7]
  binding result: no binding

B3: humanized PD-L1 antibody H6L2 (humanized mouse monoclonal antibody #19, VH6 + VL2) (antibody, V domains shown)
VH: B1 VH with P9A, L11V, V12K, A16S, I20V, K67R, A68V, T87R, V89E, S91T
VL: B2 VL with A9S, S22T, A64S, D80S
notes: also called humanized antibody H6L2; humanized antibody #19
[8]
  EC50: 0.62 µg/mL
[6]
  binding result: no binding
[7]
  binding result: no binding
[9]
  binding result: no binding

B4: humanized PD-L1 antibody H5L4 (VH5 + VL4) (antibody, V domains shown)
VH: EVQLVQSGAEVKKPGASVKVSCKASGSAFSSSWMNWLRQRPGQGLEWIGRIYPGDGDTNYNGKFKGRVTLTADKSISTAYMELSRLRSVDTAVYFCARRRANHYGSNWYFDVWGAGTTVTVSS
VL: B2 VL with D80S
[10]
  binding result: binds

B5: humanized PD-L1 antibody H4L4 (VH4 + VL4) (antibody, V domains shown)
VH: B4 VH with A16S, I76S, R85S
VL: B2 VL with D80S
[5]
  binding result: binds
